Source: US20180318438A1, “ANTIBODY DRUG CONJUGATES OF KINESIN SPINDEL PROTEIN (KSP) INHIBITORS WITH ANTI-TWEAKR-ANTIBODIES” (Bayer Pharma Aktiengesellschaft, priority 2015, published 2018)

T1: TWEAKR on human cells (NCI-H292, 786-O, A498, SK-HEP-1, HEK293) (human, UniProt Q9NP84 28-129)
T1 sequence: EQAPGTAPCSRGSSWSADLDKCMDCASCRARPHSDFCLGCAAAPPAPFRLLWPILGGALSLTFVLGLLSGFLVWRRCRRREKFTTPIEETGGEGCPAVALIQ

T2: TPP-2305, hTNFRSF12 amino acids 28-80 (extracellular domain of TWEAKR) (human, UniProt Q9NP84 28-80)
T2 construct: Bought recombinant antigen (Fitzgerald 30R-AT080); also called TWEAKR extracellular domain; 30R-AT080 (Fitzgerald)
T2 sequence: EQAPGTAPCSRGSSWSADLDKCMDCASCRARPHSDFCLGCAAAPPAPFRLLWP


Key:
[1] = tested on: KPL4: human breast cancer cell line; assay: Cytotoxicity, MTT assay; assay type: cell-based; conditions: KPL4, 96 h, metabolites, KPL4 cells
Procedure: The cells were cultivated according to the standard method using the growth media listed under C-1. The test is carried out by detaching the cells with a solution of Accutase in PBS (Biochrom AG #L2143), pelleting, resuspending in culture medium, counting and sowing into a 96-well culture plate with white bottom (Costar #3610) (NCI H292: 2500 cells/well, KPL-4: 1200 cells/well, SK-HEP-1: 1500 cells/well in a total volume of 100 μl). The cells were then incubated in an incubator at 37° C. and 5% carbon dioxide. After 48 h, the medium was replaced. The metabolites in 10 μl of culture medium in concentrations from 10^−5M to 10^−13M were then pipetted to the cells (in triplicate), and the assay was then incubated in an incubator at 37° C. and 5% carbon dioxide. […] To this end, the MTT reagent was incubated with the cells for 4 h, followed by lysis of the cells overnight by addition of the detergent. The dye formed was detected at 570 nm (Infinite M1000 pro, Tec an). The measured data were used to calculate the IC50 of the growth inhibition using the DRC (dose response curve). The proliferation of cells which were not treated with test substance but were otherwise identically treated was defined as the 100% figure.

[2] = tested on: NCI-H292: human mucoepidermoid lung carcinoma cells; assay: Cytotoxicity, MTT assay; assay type: cell-based; conditions: NCI-H292, 96 h, metabolites
[3] = tested on: Caco-2 cells; assay: Cell permeability, flux assay using Caco-2 cells; conditions: basal to apical, 2 h
[4] = target: T1, TWEAKR on human cells (NCI-H292, 786-O, …); assay: cell-based or functional assay
[5] = target: T1, TWEAKR on human cells (NCI-H292, 786-O, …); assay: flow cytometry on SK-HEP-1 cells, dose curve from 10 ug/ml in 1:5 steps, anti-kappa-FITC secondary
[6] = target: T2, TPP-2305, hTNFRSF12 amino acids 28-80 …; assay: SPR (Biacore T200), antibody captured by anti-human Fc on CM5, TWEAKR extracellular domain 3.9-500 nM as analyte, 25 C; monovalent KD
[7] = target: T1, TWEAKR on human cells (NCI-H292, 786-O, …); assay: flow cytometry on NCI-H292 cells, dose curve from 10 ug/ml in 1:5 steps, anti-kappa-FITC secondary
[8] = target: T2, TPP-2305, hTNFRSF12 amino acids 28-80 …; assay: SPR (Biacore T200), antibody captured by anti-human Fc on CM5, TWEAKR extracellular domain 3.9-500 nM as analyte, 25 C

| Agonistic activity [%] of the TWEAK-ind. agonism (NF-kappaB reporter gene assay, HEK293) [4] | EC50 [5] | Kd [6] | EC50 [7] | Molecule | also measured |
| --- | --- | --- | --- | --- | --- |
| – | – | – | – | CC(C)(C)[C@H](c1cc(-c2cc(F)ccc2F)cn1Cc1ccccc1)N(CC[C@H](N)C(=O)NCCNC(=O)CNC(=O)CC(SC[C@H](N)C(=O)O)C(=O)O)C(=O)CO (stereo partly drawn) [Example M13, 4-[(2-{[2-({(2S)-2-Amino-4-[{(1R)-1-[1-benzyl-4-(2,5-difluorophenyl)-1H-pyrrol-2-yl]-2,2-dimethylpropyl}(glycoloyl)amino]butanoyl}amino)ethyl]amino}-2-oxoethyl)amino]-2-{[(2R)-2-amino-2-carboxyethyl]sulphanyl}-4-oxobutanoic acid/trifluoroacetic acid (1:1)] | IC50 [1]: 169 nM; IC50 [2]: 152 nM |
| – | – | – | – | CC(C)(C)[C@H](c1cc(-c2cc(F)ccc2F)cn1Cc1ccccc1)N(CC[C@H](N)C(=O)N[C@H](CCC(=O)O)C(=O)O)C(=O)CO.O=C(O)C(F)(F)F [Example M25, N-{(2S)-2-Amino-4-[{(1R)-1-[1-benzyl-4-(2,5-difluorophenyl)-1H-pyrrol-2-yl]-2,2-dimethylpropyl}(glycoloyl)amino]butanoyl}-L-glutamic acid/trifluoroacetic acid (1:1)] | Papp (B-A) [3]: 0.81 ×10⁻⁶ cm/s |
| – | – | – | – | CC(C)(C)[C@H](c1cc(-c2cc(F)ccc2F)cn1Cc1ccccc1)N(CC[C@H](N)C(=O)NCCNC(=O)CNC(=O)CC(SC[C@H](N)C(=O)O)C(=O)O)C(=O)CO.O=C(O)C(F)(F)F (stereo partly drawn) [Example M26, 4-[(2-{[2-({(2S)-2-Amino-4-[{(1R)-1-[1-benzyl-4-(2,5-difluorophenyl)-1H-pyrrol-2-yl]-2,2-dimethylpropyl}(glycoloyl)amino]butanoyl}amino)ethyl]amino}-2-oxoethyl)amino]-2-{[(2R)-2-amino-2-carboxyethyl]sulphanyl}-4-oxobutanoic acid/trifluoro acetic acid (1:1)] | Papp (B-A) [3]: 1.3 ×10⁻⁶ cm/s |
| 4% | 0.9 nM | 1.4 nM | 0.8 nM | TPP-7007 (antibody, human IgG1, kappa, V domains shown, also called anti-TWEAKR AK1D; AK1D) VH: QVQLVQSGAEVKKPGASVKVSCKASGYTFTDFIIAWVKQAPGQGLEWIGEIYPGTGRTYYSEKFRGKATLTADTSTSTAYMELSSLRSEDTAVYFCARRTIYYDYDGDYWGQGTLVTVSS VL: DIVMTQSPLSLPVTPGEPASISCRSSKSLLHSNGITYLYWYLQKPGQSPQLLIYQMSNLASGVPDRFSGSGSGTDFTLKISRVEAEDVGVYYCAHNLELPWTFGQGTKVEIKR | – |
| 0.1% | 0.54 nM | 0.26 nM | 0.5 nM | TPP-7005 (antibody, human IgG1, kappa, V domains shown, also called anti-TWEAKR AK1B; AK1B) VH: QVQLVQSGAEVKKPGASVKISCKVSGYTFTDFIIAWVKQAPGKGLEWIGEIYPGTGRTYYSEKFRGKATLTADKSTSTAYMELSSLRSEDTAVYYCARRTIYYDYDGDYWGQGTTVTVSS VL: DIVMTQSPLSLPVTPGEPASISCRSSKSLLHSNGITYLYWYLQKPGQSPQLLIYQMSNLASGVPDRFSSSGSGTDFTLKISRVEAEDVGVYYCAHNLELPWTFGGGTKVEIKR | Antagonistic activity IC50 [M] (NF-kappaB reporter gene assay in the presence of Tweak 200 ng/ml) [4]: 2e-11 M; koff [8]: 0.0018 s⁻¹; kon [8]: 6.8e+06 M⁻¹ s⁻¹ |
| 15% | – | 6 nM | 8.9 nM | TPP-7075 (antibody, human IgG1, kappa, V domains shown) VH: QVQLVQSGAEVKKPGASVKVSCKASGYTFTDFIIAWVKQAPGQGLEWIGEIYPGTGRTYYSEKFRGKATLTADTSTSTAYMELSSLRSEDTAVYFCARRTIYYDYDGDYWGQGTLVTVSS VL: DIVMTQSPLSLPVTPGEPASISCRSSKSLLHSSGITYLYWYLQKPGQSPQLLIYQMSNLASGVPDRFSGSGSGTDFTLKISRVEAEDVGVYYCAHNLELPWTFGQGTKVEIKR | Antagonistic activity IC50 [M] (NF-kappaB reporter gene assay in the presence of Tweak 200 ng/ml) [4]: 2.4e-08 M |
| 14% | – | 0.7 nM | – | ITEM-4 (antibody, V domains shown, Murine IgG2b, bought (eBioscience 13-9018); also called anti-TWEAKR AK1A; AK1A) VH: QVQLQQSGPELVKPGASVKMSCKASGYTFTDFIIAWVKQRTGQGLEWIGEIYPGTGRTYYSEKFRGKATLTADKSSNTAYMQLSSLTSVDSAVYFCARRTIYYDYDGDYWGQGTTLTVSS VL: DIVMTQAAFSNPVTLGTSASISCRSSKSLLHSNGITYLYWYLQKPGQSPQLLIYQMSNLASGVPDRFSSSGSGTDFTLRISRVEAEDVGVYYCAHNLELPWTFGGGTKLELK | – |
| 3% | 0.83 nM | 0.33 nM | 0.54 nM | TPP-7006 (antibody, human IgG1, kappa, V domains shown, also called anti-TWEAKR AK1C; AK1C) VH: QVQLQQSGPELVKPGASVKMSCKASGYTFTDFIIAWVKQRTGQGLEWIGEIYPGTGRTYYSEKFRGKATLTADKSSNTAYMQLSSLTSVDSAVYFCARRTIYYDYDGDYWGQGTTLTVSS VL: DIVMTQAAFSNPVTLGTSASISCRSSKSLLHSNGITYLYWYLQKPGQSPQLLIYQMSNLASGVPDRFSSSGSGTDFTLRISRVEAEDVGVYYCAHNLELPWTFGGGTKLELKR | – |
